{
  "source": "paper PMC8765430",
  "about": "“MdaB and NfrA, Two Novel Reductases Important in the Survival and Persistence of the Major Enteropathogen Campylobacter jejuni” (Journal of Bacteriology, 2022)",
  "molecules": {"B1": {"name": "rrpB (-2) (dsDNA)", "DNA 1": "TTAAAAAATATGCGGATCTTTTAAAAAATAAGGATCGGATCTGAAAAAATAT", "DNA 2": "ATATTTTTTCAGATCCGATCCTTATTTTTTAAAAGATCCGCATATTTTTTAA"}, "B2": {"name": "rrpBprobe (rrpB WT) (dsDNA)", "DNA 1": "TTAAAAAATATGTTATAATTTTAAAAAATAAGGATTTATAATGAAAAAATAT", "DNA 2": "ATATTTTTTCATTATAAATCCTTATTTTTTAAAATTATAACATATTTTTTAA"}, "B3": {"name": "rrpB (-1) (dsDNA)", "DNA 1": "B1 DNA 1 with C13T, G14T, G15A, A16T, T17A, C18A", "DNA 2": "B1 DNA 2 with G35T, A36T, T37A, C38T, C39A, G40A"}, "B4": {"name": "mdaBprobe (dsDNA)", "DNA 1": "AAATTTAAAATACTATGTTAATATTGAATCGTATTATAGTAAAAGTT", "DNA 2": "AACTTTTACTATAATACGATTCAATATTAACATAGTATTTTAAATTT"}, "B5": {"name": "rrpA (-2) (dsDNA)", "DNA 1": "GCATAATCGAGCTTTCAATACAGAAAATAAAGTAATATCGAGCACTAAAGGAATGTTAAATGA", "DNA 2": "TCATTTAACATTCCTTTAGTGCTCGATATTACTTTATTTTCTGTATTGAAAGCTCGATTATGC"}, "B6": {"name": "nfrAprobe (dsDNA)", "DNA 1": "TAGATCTTTAATATTTATATAAATGATGATTTTTAGTTCATCTATAATAAAATATTATATCA", "DNA 2": "TGATATAATATTTTATTATAGATGAACTAAAAATCATCATTTATATAAATATTAAAGATCTA"}, "B7": {"name": "rrpAprobe (dsDNA)", "DNA 1": "GCATAATATCATTTTCAATACAGAAAATAAAGTAATATACTATACTAAAGGAATGTTAAATGA", "DNA 2": "TCATTTAACATTCCTTTAGTATAGTATATTACTTTATTTTCTGTATTGAAAATGATATTATGC"}, "B8": {"name": "rrpA (-1) (dsDNA)", "DNA 1": "B7 DNA 1 with A39C, C40G, T41A, A42G, T43C", "DNA 2": "B7 DNA 2 with A21G, T22C, A23T, G24C, T25G"}, "B9": {"name": "rrpA WT (Fig. S1) (dsDNA)", "DNA 1": "GCATATAATATCATTTTCAATACAGAAAATAAAGTAATATACTATACTAAAGGAATGTTAAATGA", "DNA 2": "TCATTTAACATTCCTTTAGTATAGTATATTACTTTATTTTCTGTATTGAAAATGATATTATATGC"}},
  "key": {"MdaB (MdaBhis6)": {"molecular_target": "T1, MdaB (MdaBhis6) (Campylobacter jejuni, UniProt Q0P880)", "T1 construct": "gene Cj1545c; recombinant His6-tagged (pET21a+), E. coli BL21(DE3), Ni-NTA", "T1 sequence (Q0P880 entry or part of it)": "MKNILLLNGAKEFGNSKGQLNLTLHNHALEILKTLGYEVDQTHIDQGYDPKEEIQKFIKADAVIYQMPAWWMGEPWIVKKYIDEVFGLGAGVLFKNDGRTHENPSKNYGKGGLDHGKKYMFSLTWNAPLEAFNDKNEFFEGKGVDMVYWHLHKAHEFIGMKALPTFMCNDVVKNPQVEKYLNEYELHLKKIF", "test": "NADPH oxidation at […] nm", "type": "biochemical", "conditions": "0.2 mM quinone substrates; 200 μM NADPH; 50 mM Tris-HCl, 100 mM NaCl, 10% DMSO; pH ~7.5; 37°C; anaerobic"}, "NfrA (NfrAhis6)": {"molecular_target": "T2, NfrA (NfrAhis6) (Campylobacter jejuni, UniProt Q0P871)", "T2 construct": "gene Cj1555c; recombinant His6-tagged (pET21a+), E. coli BL21(DE3), Ni-NTA", "T2 sequence (Q0P871 entry or part of it)": "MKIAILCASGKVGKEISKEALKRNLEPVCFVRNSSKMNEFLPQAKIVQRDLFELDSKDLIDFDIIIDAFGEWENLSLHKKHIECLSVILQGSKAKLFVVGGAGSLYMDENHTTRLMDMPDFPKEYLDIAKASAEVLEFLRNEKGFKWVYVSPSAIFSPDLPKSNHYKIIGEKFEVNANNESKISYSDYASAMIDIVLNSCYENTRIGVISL", "test": "NADPH oxidation at […] nm", "type": "biochemical", "conditions": "riboflavin as acceptor; pH ~7.5"}, "RrpB [1]": {"molecular_target": "T3, RrpB (Campylobacter jejuni, UniProt Q0P870 1-110)", "T3 sequence": "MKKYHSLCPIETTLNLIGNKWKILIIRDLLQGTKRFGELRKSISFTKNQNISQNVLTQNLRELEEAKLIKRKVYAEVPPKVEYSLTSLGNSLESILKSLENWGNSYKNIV", "test": "EMSA; EMSA: Odyssey infrared EMSA kit, 50 nM probe, 20 ul, 6% gel at 4 C. Footprinting: 10 mM Tris-HCl pH 8.5, 30 mM K-glutamate, 1 mM DTT, 5 mM Mg acetate, 2 mM CaCl2, 0.125 mg/ml BSA, 30% glycerol, 25 C", "conditions": "protein: recombinant; tags: C-terminal His6 (pET21a); chain copies: 2"}, "RrpB [2]": {"molecular_target": "T3, RrpB", "test": "EMSA; DTT (higher complex); EMSA: Odyssey infrared EMSA kit, 50 nM probe, 20 ul, 6% gel at 4 C. Footprinting: 10 mM Tris-HCl pH 8.5, 30 mM K-glutamate, 1 mM DTT, 5 mM Mg acetate, 2 mM CaCl2, 0.125 mg/ml BSA, 30% glycerol, 25 C", "conditions": "protein: recombinant; tags: C-terminal His6 (pET21a); chain copies: 2; label: 5' IRDye 800"}, "RrpA [3]": {"molecular_target": "T4, RrpA (Campylobacter jejuni, UniProt Q0P879 1-115)", "T4 sequence": "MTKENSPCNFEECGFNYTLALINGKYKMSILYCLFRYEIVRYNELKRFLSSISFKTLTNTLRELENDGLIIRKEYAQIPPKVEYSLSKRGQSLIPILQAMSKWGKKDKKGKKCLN", "test": "EMSA; 0.05 ug protein, 50 nM DNA; EMSA: Odyssey infrared EMSA kit, 50 nM probe, 20 ul, 6% gel at 4 C. Footprinting: 10 mM Tris-HCl pH 8.5, 30 mM K-glutamate, 1 mM DTT, 5 mM Mg acetate, 2 mM CaCl2, 0.125 mg/ml BSA, 30% glycerol, 25 C", "conditions": "protein: recombinant; tags: C-terminal His6 (pET21a); chain copies: 2; label: 5' IRDye 800"}, "RrpA [4]": {"molecular_target": "T4, RrpA", "test": "EMSA; EMSA: Odyssey infrared EMSA kit, 50 nM probe, 20 ul, 6% gel at 4 C. Footprinting: 10 mM Tris-HCl pH 8.5, 30 mM K-glutamate, 1 mM DTT, 5 mM Mg acetate, 2 mM CaCl2, 0.125 mg/ml BSA, 30% glycerol, 25 C", "conditions": "protein: recombinant; tags: C-terminal His6 (pET21a); chain copies: 2"}},
  "note": "Substitutions are numbered along the chain they refer to.",
  "data": [
    {"molecule": "NC(=O)C1=CN([C@@H]2O[C@H](COP(=O)(O)OP(=O)(O)OC[C@H]3O[C@@H](n4cnc5c(N)ncnc54)[C@H](OP(=O)(O)O)[C@@H]3O)[C@@H](O)[C@H]2O)C=CC1", "note": "[NADPH]", "values": [
      {"measurement": "specific activity", "setting": "MdaB (MdaBhis6)", "result": "reductase activity of MdaB was determined by monitoring the oxidation of NADPH"},
      {"measurement": "specific activity", "setting": "NfrA (NfrAhis6)", "result": "This was indicative of NfrA’s preference for NADPH over NADH"}
    ]},
    {"molecule": "B1", "values": [
      {"measurement": "binding result", "setting": "RrpB [1]", "result": "no binding"}
    ]},
    {"molecule": "B2", "values": [
      {"measurement": "binding result", "setting": "RrpB [2]", "result": "binds"}
    ]},
    {"molecule": "B3", "values": [
      {"measurement": "binding result", "setting": "RrpB [1]", "result": "binds"}
    ]},
    {"molecule": "B4", "values": [
      {"measurement": "binding result", "setting": "RrpA [3]", "result": "binds"}
    ]},
    {"molecule": "B5", "values": [
      {"measurement": "binding result", "setting": "RrpA [4]", "result": "no binding"}
    ]},
    {"molecule": "B6", "values": [
      {"measurement": "binding result", "setting": "RrpB [2]", "result": "binds"}
    ]},
    {"molecule": "B7", "values": [
      {"measurement": "binding result", "setting": "RrpA [3]", "result": "binds"}
    ]},
    {"molecule": "B8", "values": [
      {"measurement": "binding result", "setting": "RrpA [4]", "result": "binds"}
    ]},
    {"molecule": "B9", "values": [
      {"measurement": "binding result", "setting": "RrpA [4]", "result": "binds"}
    ]}
  ]
}
